What was measured:
human IGFBP-1 = target: T1, human IGFBP-1 (human, UniProt P08833 26-259); assay: competitive phage ELISA
T1 construct: mature; Secreted recombinant protein; also called IGFBP-I
T1 sequence (looked up): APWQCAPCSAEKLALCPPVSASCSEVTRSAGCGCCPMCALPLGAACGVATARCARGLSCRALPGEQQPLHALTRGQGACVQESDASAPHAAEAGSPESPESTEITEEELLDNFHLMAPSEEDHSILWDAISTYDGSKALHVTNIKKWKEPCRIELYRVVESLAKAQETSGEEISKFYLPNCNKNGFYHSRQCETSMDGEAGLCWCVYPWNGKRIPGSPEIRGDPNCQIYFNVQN
Method: (§1) Phage particles were harvested and resuspended in PBS buffer as described in Lowman, H. B., "Phage Display of Peptide Libraries on Protein Scaffolds," in Cabilly, S. (ed.), *Combinatorial Peptide Library Protocols* (Humana Press Inc.: Totowa, N.J., 1998), pp. 249–264. Then phage concentrations were normalized to yield a maximal ELISA signal of 0.2–0.4 for each mutant (Lowman, in Cabilly, S. (ed.), supra). Threefold serial dilutions of soluble competitor were prepared on non-absorbent microtiter plates (Nunc, F, 96 wells) with binding buffer (0.5% TWEEN™ 20/PBS) containing phage at the previously-determined concentrations. The dilution range of competitor protein extended over six orders of magnitude, starting at 5 µM for IGFBP-1 and 500 nM for IGFBP-3. After blocking, the plates containing immobilized target were washed with 0.05% TWEEN™/PBS buffer and subsequently incubated with 80 µl/well of the premixed phage-competitor solutions for 1 hour at room temperature. […] Numbers in Table I represent mean±standard deviation of individually assessed $IC50$ values.
(§2) At least two different clones of every mutant were tested.

[1] = target: T2, recombinant human IGFBP-3 (human, UniProt P17936 28-291); assay: competitive phage ELISA
T2 construct: mature; Secreted recombinant protein
Method: as §1, §2

T2 sequence (P17936 28-291): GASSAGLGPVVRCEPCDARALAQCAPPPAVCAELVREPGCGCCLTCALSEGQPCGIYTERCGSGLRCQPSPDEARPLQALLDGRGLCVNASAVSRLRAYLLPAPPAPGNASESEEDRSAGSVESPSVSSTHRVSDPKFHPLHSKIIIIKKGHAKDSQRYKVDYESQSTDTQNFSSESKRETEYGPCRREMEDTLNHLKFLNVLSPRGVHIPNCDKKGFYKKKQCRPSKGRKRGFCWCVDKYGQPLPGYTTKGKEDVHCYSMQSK

Row | Binder | IC50 (human IGFBP-1) [nM] | IC50 [1] [nM]
1 | IGF-I D12A displayed on phage (ligand, On phage; G1S-A70V template; not shown: M13 gene III fragment (residues 249-406), the display carrier, and its junction) SPETLCGAELVAALQFVCGDRGFYFNKPTGYGSSSRRAPQTGIVDECCFRSCDLRRLEMYCAPLKPAKSV | 4.3 | 1.49
2 | IGF-I E9A displayed on phage (ligand, On phage; G1S-A70V template; not shown: M13 gene III fragment (residues 249-406), the display carrier, and its junction) SPETLCGAALVDALQFVCGDRGFYFNKPTGYGSSSRRAPQTGIVDECCFRSCDLRRLEMYCAPLKPAKSV | 8.6 | 1.32
3 | IGF-I R21A displayed on phage (ligand, On phage; G1S-A70V template; not shown: Display carrier: M13 gene III protein fragment (residues 249-406) and the junction to it) SPETLCGAELVDALQFVCGDAGFYFNKPTGYGSSSRRAPQTGIVDECCFRSCDLRRLEMYCAPLKPAKSV | 7.1 | 0.58
4 | IGF-I V17A displayed on phage (ligand, On phage; G1S-A70V template; not shown: M13 gene III fragment (residues 249-406), the display carrier, and its junction) SPETLCGAELVDALQFACGDRGFYFNKPTGYGSSSRRAPQTGIVDECCFRSCDLRRLEMYCAPLKPAKSV | 42.9 | 3.67
5 | IGF-I D53A displayed on phage (ligand, On phage; G1S-A70V template; not shown: Display partner: M13 gene III protein fragment (residues 249-406, mature count) and the junction to it) SPETLCGAELVDALQFVCGDRGFYFNKPTGYGSSSRRAPQTGIVDECCFRSCALRRLEMYCAPLKPAKSV | 15.3 | 1.05
6 | IGF-I K65A displayed on phage (ligand, On phage; G1S-A70V template; not shown: M13 gene III protein fragment (residues 249-406), the phage display carrier, and its junction to IGF-I) SPETLCGAELVDALQFVCGDRGFYFNKPTGYGSSSRRAPQTGIVDECCFRSCDLRRLEMYCAPLAPAKSV | 12.4 | 0.69
7 | IGF-I L14A displayed on phage (ligand, On phage; G1S-A70V template; not shown: M13 gene III fragment (residues 249-406), the display carrier, and its junction) SPETLCGAELVDAAQFVCGDRGFYFNKPTGYGSSSRRAPQTGIVDECCFRSCDLRRLEMYCAPLKPAKSV | 36.7 | 0.9
8 | IGF-I M59A displayed on phage (ligand, On phage; G1S-A70V template; not shown: M13 gene III protein fragment (residues 249-406), the phage display carrier, and its junction to IGF-I) SPETLCGAELVDALQFVCGDRGFYFNKPTGYGSSSRRAPQTGIVDECCFRSCDLRRLEAYCAPLKPAKSV | 13.1 | 0.74
9 | IGF-I R56A displayed on phage (ligand, On phage; G1S-A70V template; not shown: Display partner: M13 gene III protein fragment (residues 249-406, mature count) and the junction to it) SPETLCGAELVDALQFVCGDRGFYFNKPTGYGSSSRRAPQTGIVDECCFRSCDLRALEMYCAPLKPAKSV | 13.1 | 1
10 | IGF-I R55A displayed on phage (ligand, On phage; G1S-A70V template; not shown: Display partner: M13 gene III protein fragment (residues 249-406, mature count) and the junction to it) SPETLCGAELVDALQFVCGDRGFYFNKPTGYGSSSRRAPQTGIVDECCFRSCDLARLEMYCAPLKPAKSV | 9 | 0.66
11 | IGF-I S51A displayed on phage (ligand, On phage; G1S-A70V template; not shown: Display partner: M13 gene III protein fragment (residues 249-406, mature count) and the junction to it) SPETLCGAELVDALQFVCGDRGFYFNKPTGYGSSSRRAPQTGIVDECCFRACDLRRLEMYCAPLKPAKSV | 13.4 | 0.65
12 | IGF-I T4A displayed on phage (ligand, not shown: large carriers; small tags and cut ends, On phage; G1S-A70V template) SPEALCGAELVDALQFVCGDRGFYFNKPTGYGSSSRRAPQTGIVDECCFRSCDLRRLEMYCAPLKPAKSV | 19.4 | 0.8
13 | IGF-I Q15A displayed on phage (ligand, On phage; G1S-A70V template; not shown: M13 gene III fragment (residues 249-406), the display carrier, and its junction) SPETLCGAELVDALAFVCGDRGFYFNKPTGYGSSSRRAPQTGIVDECCFRSCDLRRLEMYCAPLKPAKSV | 13.9 | 1.26
14 | IGF-I L10A displayed on phage (ligand, On phage; G1S-A70V template; not shown: M13 gene III fragment (residues 249-406), the display carrier, and its junction) SPETLCGAEAVDALQFVCGDRGFYFNKPTGYGSSSRRAPQTGIVDECCFRSCDLRRLEMYCAPLKPAKSV | 311 | 3.55
15 | IGF-I G19A displayed on phage (ligand, On phage; G1S-A70V template; not shown: M13 gene III fragment (residues 249-406), the display carrier, and its junction) SPETLCGAELVDALQFVCADRGFYFNKPTGYGSSSRRAPQTGIVDECCFRSCDLRRLEMYCAPLKPAKSV | 11 | 0.9
16 | IGF-I F23A displayed on phage (ligand, On phage; G1S-A70V template; not shown: Display carrier: M13 gene III protein fragment (residues 249-406) and the junction to it) SPETLCGAELVDALQFVCGDRGAYFNKPTGYGSSSRRAPQTGIVDECCFRSCDLRRLEMYCAPLKPAKSV | 10.9 | 2.18
17 | IGF-I G22A displayed on phage (ligand, On phage; G1S-A70V template; not shown: Display carrier: M13 gene III protein fragment (residues 249-406) and the junction to it) SPETLCGAELVDALQFVCGDRAFYFNKPTGYGSSSRRAPQTGIVDECCFRSCDLRRLEMYCAPLKPAKSV | 15.9 | 2.07
18 | IGF-I E3A displayed on phage (ligand, not shown: large carriers; small tags and cut ends, On phage; G1S-A70V template) SPATLCGAELVDALQFVCGDRGFYFNKPTGYGSSSRRAPQTGIVDECCFRSCDLRRLEMYCAPLKPAKSV | 278 | 1.05

Row | Binder | IC50 (human IGFBP-1) [nM] | IC50 [1] [nM]
19 | IGF-I S35A displayed on phage (ligand, not shown: large carriers, On phage; G1S-A70V template) SPETLCGAELVDALQFVCGDRGFYFNKPTGYGSSARRAPQTGIVDECCFRSCDLRRLEMYCAPLKPAKSV | 11.7 | 0.47
20 | IGF-I E58A displayed on phage (ligand, On phage; G1S-A70V template; not shown: M13 gene III protein fragment (residues 249-406), the phage display carrier, and its junction to IGF-I) SPETLCGAELVDALQFVCGDRGFYFNKPTGYGSSSRRAPQTGIVDECCFRSCDLRRLAMYCAPLKPAKSV | 11.9 | 1.03
21 | IGF-I L5A displayed on phage (ligand, not shown: large carriers; small tags and cut ends, On phage; G1S-A70V template) SPETACGAELVDALQFVCGDRGFYFNKPTGYGSSSRRAPQTGIVDECCFRSCDLRRLEMYCAPLKPAKSV | 55.3 | 1.53
22 | IGF-I K68A displayed on phage (ligand, not shown: large carriers; small tags and cut ends, On phage; G1S-A70V template) SPETLCGAELVDALQFVCGDRGFYFNKPTGYGSSSRRAPQTGIVDECCFRSCDLRRLEMYCAPLKPAASV | 10.5 | 0.76
23 | IGF-I N26A displayed on phage (ligand, On phage; G1S-A70V template; not shown: Display carrier: M13 gene III protein fragment (residues 249-406) and the junction to it) SPETLCGAELVDALQFVCGDRGFYFAKPTGYGSSSRRAPQTGIVDECCFRSCDLRRLEMYCAPLKPAKSV | 9.1 | 0.9
24 | IGF-I S69A displayed on phage (ligand, not shown: large carriers; small tags and cut ends, On phage; G1S-A70V template) SPETLCGAELVDALQFVCGDRGFYFNKPTGYGSSSRRAPQTGIVDECCFRSCDLRRLEMYCAPLKPAKAV | 12.8 | 0.71
25 | IGF-I F25A displayed on phage (ligand, On phage; G1S-A70V template; not shown: Display carrier: M13 gene III protein fragment (residues 249-406) and the junction to it) SPETLCGAELVDALQFVCGDRGFYANKPTGYGSSSRRAPQTGIVDECCFRSCDLRRLEMYCAPLKPAKSV | 181 | 3.69
26 | IGF-I L54A displayed on phage (ligand, On phage; G1S-A70V template; not shown: Display partner: M13 gene III protein fragment (residues 249-406, mature count) and the junction to it) SPETLCGAELVDALQFVCGDRGFYFNKPTGYGSSSRRAPQTGIVDECCFRSCDARRLEMYCAPLKPAKSV | 23.1 | 1.83
27 | IGF-I R37A displayed on phage (ligand, not shown: large carriers, On phage; G1S-A70V template) SPETLCGAELVDALQFVCGDRGFYFNKPTGYGSSSRAAPQTGIVDECCFRSCDLRRLEMYCAPLKPAKSV | 12.3 | 0.75
28 | IGF-I P66A displayed on phage (ligand, On phage; G1S-A70V template; not shown: M13 gene III protein fragment (residues 249-406), the phage display carrier, and its junction to IGF-I) SPETLCGAELVDALQFVCGDRGFYFNKPTGYGSSSRRAPQTGIVDECCFRSCDLRRLEMYCAPLKAAKSV | 9.4 | 0.57
29 | IGF-I L64A displayed on phage (ligand, On phage; G1S-A70V template; not shown: M13 gene III protein fragment (residues 249-406), the phage display carrier, and its junction to IGF-I) SPETLCGAELVDALQFVCGDRGFYFNKPTGYGSSSRRAPQTGIVDECCFRSCDLRRLEMYCAPAKPAKSV | 12.1 | 0.93
30 | IGF-I D20A displayed on phage (ligand, On phage; G1S-A70V template; not shown: Display carrier: M13 gene III protein fragment (residues 249-406) and the junction to it) SPETLCGAELVDALQFVCGARGFYFNKPTGYGSSSRRAPQTGIVDECCFRSCDLRRLEMYCAPLKPAKSV | 8.4 | 1.11
31 | IGF-I K27A displayed on phage (ligand, On phage; G1S-A70V template; not shown: Display carrier: M13 gene III protein fragment (residues 249-406) and the junction to it) SPETLCGAELVDALQFVCGDRGFYFNAPTGYGSSSRRAPQTGIVDECCFRSCDLRRLEMYCAPLKPAKSV | 12.8 | 0.66
32 | IGF-I Y24A displayed on phage (ligand, On phage; G1S-A70V template; not shown: Display carrier: M13 gene III protein fragment (residues 249-406) and the junction to it) SPETLCGAELVDALQFVCGDRGFAFNKPTGYGSSSRRAPQTGIVDECCFRSCDLRRLEMYCAPLKPAKSV | 13.3 | 2.53
33 | IGF-I Y60A displayed on phage (ligand, On phage; G1S-A70V template; not shown: M13 gene III protein fragment (residues 249-406), the phage display carrier, and its junction to IGF-I) SPETLCGAELVDALQFVCGDRGFYFNKPTGYGSSSRRAPQTGIVDECCFRSCDLRRLEMACAPLKPAKSV | 6.6 | 0.52
34 | IGF-I L57A displayed on phage (ligand, On phage; G1S-A70V template; not shown: M13 gene III protein fragment (residues 249-406), the phage display carrier, and its junction to IGF-I) SPETLCGAELVDALQFVCGDRGFYFNKPTGYGSSSRRAPQTGIVDECCFRSCDLRRAEMYCAPLKPAKSV | 21.8 | 1.78
35 | IGF-I Q40A displayed on phage (ligand, not shown: large carriers, On phage; G1S-A70V template) SPETLCGAELVDALQFVCGDRGFYFNKPTGYGSSSRRAPATGIVDECCFRSCDLRRLEMYCAPLKPAKSV | 10.2 | 0.56
36 | IGF-I F16A displayed on phage (ligand, On phage; G1S-A70V template; not shown: M13 gene III fragment (residues 249-406), the display carrier, and its junction) SPETLCGAELVDALQAVCGDRGFYFNKPTGYGSSSRRAPQTGIVDECCFRSCDLRRLEMYCAPLKPAKSV | 57.8 | 1.32

From US6403764
